Earlier results as cited in US10421954B2, “Hybrid polymers, pharmaceutical compositions and methods of synthesizing the same” (New York University, priority 2013, dated 2019).

Conditions: literature value (ref. 25) for marketed PTH (1-34) (Forteo)

CC[C@H](C)[C@H](NC(=O)[C@H](CCC(=O)O)NC(=O)[C@H](CO)NC(=O)[C@@H](NC(=O)[C@@H](N)CO)C(C)C)C(=O)N[C@@H](CCC(N)=O)C(=O)N[C@@H](CC(C)C)C(=O)N[C@@H](CCSC)C(=O)N[C@@H](Cc1cnc[nH]1)C(=O)N[C@@H](CC(N)=O)C(=O)N[C@@H](CC(C)C)C(=O)NCC(=O)N[C@@H](CCCCN)C(=O)N[C@@H](Cc1cnc[nH]1)C(=O)N[C@@H](CC(C)C)C(=O)N[C@@H](CC(N)=O)C(=O)N[C@@H](CO)C(=O)N[C@@H](CCSC)C(=O)N[C@@H](CCC(=O)O)C(=O)N[C@@H](CCCN=C(N)N)C(=O)N[C@H](C(=O)N[C@@H](CCC(=O)O)C(=O)N[C@@H](Cc1c[nH]c2ccccc12)C(=O)N[C@@H](CC(C)C)C(=O)N[C@@H](CCCN=C(N)N)C(=O)N[C@@H](CCCCN)C(=O)N[C@@H](CCCCN)C(=O)N[C@@H](CC(C)C)C(=O)N[C@@H](CCC(N)=O)C(=O)N[C@@H](CC(=O)O)C(=O)N[C@H](C(=O)N[C@@H](Cc1cnc[nH]1)C(=O)N[C@@H](CC(N)=O)C(=O)N[C@@H](Cc1ccccc1)C(=O)O)C(C)C)C(C)C [PTH (1-34), parathyroid hormone 1-34]
half-life in serum: ~5 min
